Assay results as given in article PMC10786891, “Massively parallel profiling of RNA-targeting CRISPR-Cas13d”.
Residue numbers refer to the chain shown, from its start. Names may count otherwise.

T1: EsCas13d, nuclease-dead (Eubacterium siraeum, UniProt B0MS50, R295A;H300A;R849A;H854A)
T1 sequence: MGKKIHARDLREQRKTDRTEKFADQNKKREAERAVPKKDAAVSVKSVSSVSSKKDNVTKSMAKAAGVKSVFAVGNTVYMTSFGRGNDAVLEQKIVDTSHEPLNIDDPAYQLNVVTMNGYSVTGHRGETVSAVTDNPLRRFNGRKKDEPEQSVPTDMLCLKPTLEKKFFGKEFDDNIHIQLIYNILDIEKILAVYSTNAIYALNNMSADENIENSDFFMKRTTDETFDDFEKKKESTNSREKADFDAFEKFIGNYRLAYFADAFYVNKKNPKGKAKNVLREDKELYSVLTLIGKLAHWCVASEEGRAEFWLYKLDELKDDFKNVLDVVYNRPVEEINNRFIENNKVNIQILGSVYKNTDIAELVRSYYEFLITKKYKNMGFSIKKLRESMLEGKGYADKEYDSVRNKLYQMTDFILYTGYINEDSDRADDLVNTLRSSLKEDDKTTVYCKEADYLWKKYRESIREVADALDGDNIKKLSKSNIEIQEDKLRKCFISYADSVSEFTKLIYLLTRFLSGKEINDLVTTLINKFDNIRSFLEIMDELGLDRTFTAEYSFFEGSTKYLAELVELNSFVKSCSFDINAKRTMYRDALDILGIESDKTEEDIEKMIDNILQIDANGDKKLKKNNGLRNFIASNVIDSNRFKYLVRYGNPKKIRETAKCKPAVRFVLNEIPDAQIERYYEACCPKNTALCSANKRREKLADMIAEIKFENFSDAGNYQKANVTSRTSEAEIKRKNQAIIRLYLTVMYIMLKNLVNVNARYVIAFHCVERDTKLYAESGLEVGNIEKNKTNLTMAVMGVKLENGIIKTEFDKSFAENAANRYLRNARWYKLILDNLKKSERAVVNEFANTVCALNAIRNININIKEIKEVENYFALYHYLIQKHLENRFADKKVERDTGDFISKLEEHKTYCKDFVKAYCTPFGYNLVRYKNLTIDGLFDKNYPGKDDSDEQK

B1: target 3 del1,del6 (mixed)
RNA 1: CACCCGUGCAAAAUUGCAGGGGUCUAAAACGACCUGAAUAUUUCAGAUCAAA
RNA 2: GGGAAUGGAUCCACAUCUACGAAUUCGUUUUUGAUCUGAAAUAUUAGGUUGCAGAUCGGAAGAGCACACGU
B2: target 3 insU 3' of 6,insA 3' of 6 (mixed)
RNA 1: B1 RNA 1
RNA 2: GGGAAUGGAUCCACAUCUACGAAUUCGUUUUUGAUCUGAAAUAUUCUAAGGUCUGCAGAUCGGAAGAGCACACGU
B3: target 3 C1A,U8G (mixed)
RNA 1: B1 RNA 1
RNA 2: GGGAAUGGAUCCACAUCUACGAAUUCGUUUUUGAUCUGAAAUAGUCAGGUAUGCAGAUCGGAAGAGCACACGU
B4: target 3 insU 3' of 11,insG 3' of 6 (mixed)
RNA 1: B1 RNA 1
RNA 2: B2 RNA 2 with A43U, U44A, C46U, U47C, A48G
B5: target 3 C6U,A11G (mixed)
RNA 1: B1 RNA 1
RNA 2: B3 RNA 2 with A41G, G44U, C46U, A51C
B6: target 3 U8C,U22A (mixed)
RNA 1: B1 RNA 1
RNA 2: B3 RNA 2 with U30A, G44C, A51C
B7: target 3 G3A,A18G (mixed)
RNA 1: B1 RNA 1
RNA 2: B3 RNA 2 with A34G, G44U, G49A, A51C
B8: target 3 U2A,A11G (mixed)
RNA 1: B1 RNA 1
RNA 2: B3 RNA 2 with A41G, G44U, U50A, A51C
B9: target 3 A11G,A12G (mixed)
RNA 1: B1 RNA 1
RNA 2: B3 RNA 2 with A40G, A41G, G44U, A51C
B10: target 3 insA 3' of 14,insA 3' of 2 (mixed)
RNA 1: B1 RNA 1
RNA 2: B2 RNA 2 with U42A, A43U, U44A, C46U, U47C, A49G, G51U, U52A
B11: target 3 G19U (mixed)
RNA 1: B1 RNA 1
RNA 2: B3 RNA 2 with G33U, G44U, A51C
B12: target 3 insU 3' of 9,insA 3' of 8 (mixed)
RNA 1: B1 RNA 1
RNA 2: B2 RNA 2 with C46A, A48C
B13: target 3 insA 3' of 22,insU 3' of 19 (mixed)
RNA 1: B1 RNA 1
RNA 2: GGGAAUGGAUCCACAUCUACGAAUUCGUUUAUUGUAUCUGAAAUAUUCAGGUCUGCAGAUCGGAAGAGCACACGU
B14: target 3 G3A,C6G (mixed)
RNA 1: B1 RNA 1
RNA 2: B3 RNA 2 with G44U, C46G, G49A, A51C
B15: target 1 G5U,U10C (mixed)
RNA 1: CACCCGUGCAAAAAUGCAGGGGUCUAAAACUGAGCGGAUAACCUCUCUAUGG
RNA 2: GGGAAUGGAUCCACAUCUACGAAUUCGUACCAUAGAGAGGUCAUCCUCUCACCGAGAUCGGAAGAGCACACGU
B16: target 1 insG 3' of 21,insU 3' of 1 (mixed)
RNA 1: B15 RNA 1
RNA 2: GGGAAUGGAUCCACAUCUACGAAUUCGUACCGAUAGAGAGGUUAUCCGCUCAUCCGAGAUCGGAAGAGCACACGU

Target: T1, EsCas13d, nuclease-dead
Assay: crRNA (strand 1, pre-loaded); Mg2+; 40 mM Tris-HCl pH 7.5, 150 mM NaCl, 6 mM MgCl2, 1 mM DTT, 0.1% Tween-20, 0.2 mg/ml BSA; 25 C; 10 min per concentration, then washed
Settings: tags: His6-TwinStrep-SUMO cleaved; N-terminal SNAP kept (SNAP-Surface 488); label: 3' end held by stalled T7 RNA polymerase

Binder	Kd [µM]
B1	~0.056
B2	0.00869 ± 0.00057
B3	0.074 ± 0.016
B4	0.087 ± 0.0145
B5	0.047 ± 0.0105
B6	0.0423 ± 0.00495
B7	0.055 ± 0.013
B8	0.0735 ± 0.024
B9	0.073 ± 0.0295
B10	0.064 ± 0.01
B11	0.083 ± 0.0095
B12	0.0715 ± 0.0215
B13	0.065 ± 0.015
B14	0.0465 ± 0.007
B15	0.095 ± 0.019
B16	0.071 ± 0.012
